Data reported in paper PMC10870823 (mBio, 2023).

Biological target: T1, SARS-CoV-2 (Wuhan / WA-1) Spike RBD-mouse IgG2a Fc fusion protein (SARS-CoV-2, UniProt P0DTC2)
T1 construct: source: recombinant, purified
Assay: BLI
Conditions: both partners purified

B1: FG-10A3 (Family G clone 10A3) human anti-SARS-CoV-2 Spike RBD monoclonal antibody (antibody, V domains shown)
VH: QVQLVESGGGVVQPGRSLRLSCAASGFTFSSYGMNWVRQAPGKGLEWVAIIWYDGNNTYYVDSVKGRFTISRDNSKNTLYLQMNSLRAEDTAVYYCARKDGSKTYYGYYFDYWGQGTLVTVSS
VL: DIQMTQSPSSLSASVGDRVTITCRASQSIHSFLNWYQQKPGKPPNLLIYAASSLQSGLPSRFSGSGSGTDFTLTISSLQPEDFATYYCQQSYITPPTFGHGTKVEIK
notes: also called Family G (FG)-10A3
Binder B1 has a Kd of 0.125 nM.
